Values quoted from earlier work as cited in PMC10680782.

Molecular target: VE-cadherin (Homo sapiens) (UniProt P33151)
UniProt P33151, sequence (P33151 48-599): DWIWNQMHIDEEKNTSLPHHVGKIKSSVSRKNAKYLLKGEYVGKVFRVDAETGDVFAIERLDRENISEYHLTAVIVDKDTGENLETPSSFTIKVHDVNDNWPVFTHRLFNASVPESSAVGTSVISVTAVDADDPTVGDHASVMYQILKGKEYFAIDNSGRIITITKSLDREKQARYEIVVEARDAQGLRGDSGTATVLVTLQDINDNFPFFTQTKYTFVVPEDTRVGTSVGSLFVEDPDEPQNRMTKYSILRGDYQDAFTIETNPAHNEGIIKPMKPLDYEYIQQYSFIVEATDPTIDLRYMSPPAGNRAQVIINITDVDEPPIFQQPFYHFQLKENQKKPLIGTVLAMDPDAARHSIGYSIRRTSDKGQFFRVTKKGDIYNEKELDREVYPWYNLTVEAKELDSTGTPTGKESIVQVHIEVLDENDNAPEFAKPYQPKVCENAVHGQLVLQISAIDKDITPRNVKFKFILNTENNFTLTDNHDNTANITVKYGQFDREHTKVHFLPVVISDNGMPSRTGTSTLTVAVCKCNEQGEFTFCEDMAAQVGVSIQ

fibrin β15-42 fragment 15-42 (from UniProt P02675)
Kd: 267 µM
